Reference: paper PMC10397247

Assays:
4H2619-bN = molecular target: T1, 4H2619-bN; test: two-hybrid library CCNG1;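 further: natural log of median RNA to DNA barcode read ratio; higher means stronger binding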
T1 chain: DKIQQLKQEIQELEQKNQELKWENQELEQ

4H3961-bN = molecular target: T2, 4H3961-bN; test: two-hybrid library CCNG1;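 further: natural log of median RNA to DNA barcode read ratio; higher means stronger binding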
T2 chain: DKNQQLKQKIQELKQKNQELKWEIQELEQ

4H3070-bN = molecular target: T3, 4H3070-bN; test: two-hybrid library CCNG1;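 further: natural log of median RNA to DNA barcode read ratio; higher means stronger binding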
T3 chain: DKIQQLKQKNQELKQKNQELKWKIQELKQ

4H2745-bN = molecular target: T4, 4H2745-bN; test: two-hybrid library CCNG1;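 further: natural log of median RNA to DNA barcode read ratio; higher means stronger binding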
T4 chain: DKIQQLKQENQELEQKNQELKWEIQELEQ

4H3112-bN = molecular target: T5, 4H3112-bN; test: two-hybrid library CCNG1
T5 chain: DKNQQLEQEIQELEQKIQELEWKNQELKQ

4H344-bN = molecular target: T6, 4H344-bN; test: two-hybrid library CCNG1
T6 chain: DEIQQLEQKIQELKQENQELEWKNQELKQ

4H470-bN = molecular target: T7, 4H470-bN; test: two-hybrid library CCNG1
T7 chain: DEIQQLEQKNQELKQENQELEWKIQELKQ

4H3907-bN = molecular target: T8, 4H3907-bN; test: two-hybrid library CCNG1
T8 chain: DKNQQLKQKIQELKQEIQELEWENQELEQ

4H496-bN = molecular target: T9, 4H496-bN; test: two-hybrid library CCNG1
T9 chain: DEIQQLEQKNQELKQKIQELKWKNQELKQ

4H2691-bN = molecular target: T10, 4H2691-bN; test: two-hybrid library CCNG1
T10 chain: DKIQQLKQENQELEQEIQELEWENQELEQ

4H342-bN = molecular target: T11, 4H342-bN; test: two-hybrid library CCNG1
T11 chain: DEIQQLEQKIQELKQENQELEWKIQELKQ

4H363-bN = molecular target: T12, 4H363-bN; test: two-hybrid library CCNG1
T12 chain: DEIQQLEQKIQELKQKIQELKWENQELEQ

4H3632-bN = molecular target: T13, 4H3632-bN; test: two-hybrid library CCNG1
T13 chain: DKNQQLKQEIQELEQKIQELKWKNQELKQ

4H347-AA = molecular target: T14, 4H347-AA; test: two-hybrid library CCmax; settings: mean of both orientations
T14 chain: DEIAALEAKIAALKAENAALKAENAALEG

4H3493-AA = molecular target: T15, 4H3493-AA; test: two-hybrid library CCmax
T15 chain: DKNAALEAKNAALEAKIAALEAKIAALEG

4H376-AA = molecular target: T16, 4H376-AA; test: two-hybrid library CCmax; settings: mean of both orientations
T16 chain: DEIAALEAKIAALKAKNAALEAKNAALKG

4H249-AA = molecular target: T17, 4H249-AA; test: two-hybrid library CCmax; settings: mean of both orientations
T17 chain: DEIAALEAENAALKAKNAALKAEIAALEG

4H3381-AA = molecular target: T18, 4H3381-AA; test: two-hybrid library CCmax; settings: mean of both orientations
T18 chain: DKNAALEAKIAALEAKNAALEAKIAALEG

4H406-AA = molecular target: T19, 4H406-AA; test: two-hybrid library CCmax; settings: mean of both orientations
T19 chain: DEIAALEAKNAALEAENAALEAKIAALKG

4H2611-AA = molecular target: T20, 4H2611-AA; test: two-hybrid library CCmax; settings: mean of both orientations
T20 chain: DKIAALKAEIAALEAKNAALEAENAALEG

4H688-AA = molecular target: T21, 4H688-AA; test: two-hybrid library CCmax; settings: mean of both orientations
T21 chain: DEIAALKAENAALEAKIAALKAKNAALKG

4H963-AA = molecular target: T22, 4H963-AA; test: two-hybrid library CCmax; settings: mean of both orientations
T22 chain: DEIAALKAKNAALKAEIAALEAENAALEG

4H3340-AA = molecular target: T23, 4H3340-AA; test: two-hybrid library CCmax; settings: mean of both orientations
T23 chain: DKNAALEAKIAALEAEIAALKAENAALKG

4H2504-AA = molecular target: T24, 4H2504-AA; test: two-hybrid library CCmax; settings: mean of both orientations
T24 chain: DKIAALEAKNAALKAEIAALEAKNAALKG

4H2592-AA = molecular target: T25, 4H2592-AA; test: two-hybrid library CCmax; settings: mean of both orientations
T25 chain: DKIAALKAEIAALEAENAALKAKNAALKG

4H2774-AA = molecular target: T26, 4H2774-AA; test: two-hybrid library CCmax; settings: mean of both orientations
T26 chain: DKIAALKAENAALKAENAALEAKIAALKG

4H2219-AA = molecular target: T27, 4H2219-AA; test: two-hybrid library CCmax
T27 chain: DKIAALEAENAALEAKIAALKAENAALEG

4H3001-AA = molecular target: T28, 4H3001-AA; test: two-hybrid library CCmax; settings: mean of both orientations
T28 chain: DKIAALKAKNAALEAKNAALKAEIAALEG

DKIQQLKQEIQELEQKNQELKWENQELEQ [4H2619-bN]
interaction score (4H2619-bN): 0.209
interaction score (4H3961-bN): -1.65
interaction score (4H3070-bN): -0.245
interaction score (4H2745-bN): -0.673
interaction score (4H3112-bN): 0.149
interaction score (4H344-bN): 0.255
interaction score (4H470-bN): -0.608
interaction score (4H3907-bN): -0.483
interaction score (4H496-bN): -1.66
interaction score (4H2691-bN): -1.49
interaction score (4H342-bN): 1.23
interaction score (4H363-bN): -1.48
interaction score (4H3632-bN): -0.529

DKIAALEAENAALEAKIAALKAENAALEG [4H2219-AA]
interaction score (4H347-AA): -1.36
interaction score (4H3493-AA): -1.56
interaction score (4H376-AA): -1.64
interaction score (4H249-AA): -1.35
interaction score (4H3381-AA): -1.13
interaction score (4H406-AA): -1.81
interaction score (4H2611-AA): -1.33
interaction score (4H688-AA): -0.493
interaction score (4H963-AA): 0.45
interaction score (4H3340-AA): -1.39
interaction score (4H2504-AA): 2.21
interaction score (4H2592-AA): -0.491
interaction score (4H2774-AA): -0.727
interaction score (4H2219-AA): -1.21
interaction score (4H3001-AA): -0.483
